Positions count from the first letter of the chain named. In names and notes the source's numbering stands.

In series [1] the target is disulfide-stabilized HIV-1 CA tubes (HIV-1). Put plainly: co-sedimentation; purified TRIM5-21R (5 μM) incubated with disulfide-stabilized HIV-1 CA tubes, fractionated by centrifugation, load, soluble and pellet fractions on SDS-PAGE with Coomassie staining, densitometry; done right after purification.
Series [2] deals with TRIM5-21R F187A (human | rhesus). Put plainly: anion exchange chromatography + SEC; relative fractions of monomer and dimer of TRIM5-21R proteins during purification; linear salt gradient; dimer to monomers.
For series [3], the target named is TRIM5-21R L190A (human | rhesus). The series is described as above.
Series [4] concerns the molecule itself. Put plainly: SEC-MALS; purified CC-L2 proteins, 50 μL injected at 0.5–1 mg/mL; dimer to monomers.

For the molecule “TRIM5-21R (rhesus TRIM5α with its RING domain replaced by that of human TRIM21), wildtype”, the percent co-pelleted with the CA tubes in series [1] is 50%.

Regarding TRIM5-21R D186A, the percent in the pellet with the CA tubes in series [1] turned out to be 36%.

In series [1], TRIM5-21R E197A showed a percent in the pellet with the CA tubes of 61%.

Consider TRIM5-21R F187A, for which the monomer fraction of the total protein in series [2] is > 50%.

Turning to TRIM5-21R L190A, in series [3], the monomer fraction of the total protein is > 50%. Further, the percent in the pellet with the CA tubes in series [1] was 34%.

Molecule TRIM5-21R L194A registered a percent in the pellet with the CA tubes in series [1] of 29%.

B1: CC-L2 fragment of rhesus TRIM5α (residues 133–300) E197A (domain or fragment, UniProt Q0PF16 133-300, looked up)
chain: MEEVAQEYHVKLQTALEMLRQKQQEAEKLEADIREEKASWKIQIDYDKTNVSADFEQLREILDWAESNELQNLEKEEEDILKSLTKSETEMVQQTQYMRELISELEHRLQGSMMDLLQGVDGIIKRIENMTLKKPKTFHKNQRRVFRAPDLKGMLDMFRELTDARRYW
notes: TRIM5α, rhesus, coiled-coil and L2 linker, residues 133-300; dimeric with a trailing shoulder of monomer by SEC-MALS; also called CC-L2 E197A; source: E. coli BL21(DE3), autoinduction, purified (Ni-NTA, anion exchange, size exclusion); not shown: His, N-terminal, cleaved; SUMO, N-terminal, cleaved
On to B1, for which the “stoichiometry N” value in series [4] turned out to be 2.

B2: CC-L2 fragment of rhesus TRIM5α (residues 133–300) E201A (domain or fragment, UniProt Q0PF16 133-300, looked up)
chain: B1 chain with A65E, E69A
notes: TRIM5α, rhesus, coiled-coil and L2 linker, residues 133-300; also called CC-L2 E201A; source: E. coli BL21(DE3), autoinduction, purified (Ni-NTA, anion exchange, size exclusion); not shown: His, N-terminal, cleaved; SUMO, N-terminal, cleaved
Regarding B2, the “stoichiometry N” value in series [4] turned out to be 2.

B3: CC-L2 fragment of rhesus TRIM5α (residues 133–300), wildtype (domain or fragment, UniProt Q0PF16 133-300, looked up)
chain: B1 chain with A65E
notes: TRIM5α, rhesus, coiled-coil and L2 linker, residues 133-300; His-SUMO leader cleaved with Ulp1 protease; also called TRIM5α_(133–300); wildtype control; source: E. coli BL21(DE3), autoinduction, purified (Ni-NTA, anion exchange, size exclusion); not shown: His, N-terminal, cleaved; SUMO, N-terminal, cleaved
As to B3, in series [4], the “stoichiometry N” value is 2.

B4: CC-L2 fragment of rhesus TRIM5α (residues 133–300) I193A (domain or fragment, UniProt Q0PF16 133-300, looked up)
chain: B1 chain with I61A, A65E
notes: TRIM5α, rhesus, coiled-coil and L2 linker, residues 133-300; also called CC-L2 I193A; source: E. coli BL21(DE3), autoinduction, purified (Ni-NTA, anion exchange, size exclusion); not shown: His, N-terminal, cleaved; SUMO, N-terminal, cleaved
For B4, the “stoichiometry N” value in series [4] was 2.

B5: CC-L2 fragment of rhesus TRIM5α (residues 133–300) D186A (domain or fragment, UniProt Q0PF16 133-300, looked up)
chain: B1 chain with D54A, A65E
notes: TRIM5α, rhesus, coiled-coil and L2 linker, residues 133-300; also called CC-L2 D186A; source: E. coli BL21(DE3), autoinduction, purified (Ni-NTA, anion exchange, size exclusion); not shown: His, N-terminal, cleaved; SUMO, N-terminal, cleaved
With B5, the “stoichiometry N” value in series [4] was 2.

As a reminder, the stoichiometry N is the number of molecules, sites or subunits per partner or assembly.

(Values after publication PMC5667893, “TRIM5α SPRY/coiled-coil interactions optimize avid retroviral capsid recognition” (PLoS Pathogens, 2017).)
